Experimental data from the DeepSol protein solubility set.

Test: soluble on expression in E. coli; label from the status in PepcDB or PDB records

| Sequence | soluble on expression in E. coli |
| --- | --- |
| GPGSMHFPSIVFRRHGGRQWMQQQSRDPFVLEARRRGYVARSAFKLLEMDDKFTLFSRGNTRVVVDIGCSPGSWLQVIRERCGDKCAVFGVDVLRVASTVTGAVCIQGDFTNPAVREELLARMVTVRAAGVVDVVTSDMCLNRGTGSTSDRQKQEELNRSALAFALEQLVPGGNFVCKVLGSPTAYEELRRDTCRWFVRTDICKPSSSRLTSDEAFMVCRGKREIPRDRSGGCDGTYGGRFGLDDWPGQLRGSPRRRKP | not soluble |
| MHSYHNPGVPTALSIFEPLQDGSTISVHGHVRHGHHKNFAVELLSGPNVVLHVNFRFHHEHVVVMNSQFSGMWGPEIRHKNPLHHSEHFHLSIKVHAGYYHISVNGHHLADYPHRYPYQSVQAIGLKGDVHVDKVHFEGFHFQRRWDGHVDHGHSGYNAYGTETYVAPVFVQPNFMPYGAPPPPVQNFNPYR | not soluble |
| MGSDKIHHHHHHMPNQVSKVNDLKHFFLHLIESGKLSHAYLFLGEDPREIHNLIAAISSRILREKTGDDVFENANLIEVKIPEGKKTLSVDQMRTVRDIFAEKSEHPQIAVIDDADKMTDSAANSILKFIEEPYDRQYIFLQARNRNRVLPTILSRVQLINIPKQKKSEISEQLVDKGIQEDEAIFISRISKSISQADDLLLDGFAINLKRSITEWLDEIFNRQEKSFAFVQSDLLNFVDTNEHQNIFNLALSSELSMRLEKAPNSVLADILDRWLVIYQRSRFTVSWQTMLESFTLEALRMVNGTEKFSNK | not soluble |
| MGHHHHHHSHMTSFEDADTEETVTCLQMTVYHPGQLQCGIFQSISFNREKLPSSEVVKFGRNSNICHYTFQDKQVSRVQFSLQLFKKFNSSVLSFEIKNMSKKTNLIVDSRELGYLNKMDLPYRCMVRFGEYQFLMEKEDGESLEFFETQFILSPRSLLQENNWPPHRPIPEYGTYSLCSSQSSSPTEMDENES | not soluble |
| MEEEAAVEKPISLNQQRMNGVVAALKQSNARRVIDLGCGQGNLLKILLKDSFFEQITGVDVSYRSLEIAQERLDRLRLPRNQWERLQLIQGALTYQDKRFHGYDAATVIEVIEHLDLSRLGAFERVLFEFAQPKIVIVTTPNIEYNVKFANLPAGKLRHKDHRFEWTRSQFQNWANKITERFAYNVQFQPIGEADPEVGSPTQMAVFIHRGHHHHHH | soluble |
| MADVIEIRGPVYNGSDINDIIDTYGENNALTIDATKFAAFYYDIDDNVTTETLSILAVPGTEGNVIGEGGIVYETTIQQVDYEFYRPAAGWSNYSLIGFFAEKYIPINPDKADKLAKLVLDSDDKYTIRTGEQLDLGEGYSIEAKQVDVDGEKVWLEFTKDGEFVDDEIISVVSGSDNTWEVELDDIQDEDDVVVLRVHVNQVFQGAVDSIAQIEGLWLIDYTNAMKIESDDEFGNLDNVKINGDTLTITNEDTFTLTRDDEEEIAEGLFFKTADDTRALEHHHHHH | soluble |
| SKDCIIQRYKDGDVNNIYTANRNEEITIEEYKVFVNEACHPYPVILPDRSVLSGDFTSAYADDDESC | soluble |
| MSPGSVVVTGANRGIGLGLVQQLVKDKNIRHIIATARDVEKATELKSIKDSRVHVLPLTVTCDKSLDTFVSKVGEIVGSDGLSLLINNAGVLLSYGTNTEPNRAVIAEQLDVNTTSVVLLTQKLLPLLKNAASKESGDQLSVSRAAVITISSGLGSITDNTSGSAQFPVLAYRMSKAAINMFGRTLAVDLKDDNVLVVNFCPGWVQTNLGGKNAALTVEQSTAELISSFNKLDNSHNGRFFMRNLKPYEF | soluble |
| SSESIRMVLIGPPGAGKGTQAPNLQERFHAAHLATGDMLRSQIAKGTQLGLEAKKIMDQGGLVSDDIMVNMIKDELTNNPACKNGFILVGFPRTIPQAEKLDQMLKEQGTPLEKAIELKVDDELLVARITGRLIHPASGRSYHKIFNPPKEDMKDDVTGEALVQISDDNADALKKRLAAYHAQTEPIVDFYKKTGIWAGVDASQPPATVWADILNKLGKN | soluble |
| MGSDKIHHHHHHMMPIRRPFGRGPAVSLFTLGTMRAIGSAEQMYGVVKAAQAAGINHIETSPAYGPAESFLGTALRQLQQKQAEPSGGWVITSKLLPGLSLKEGQCELHNLLARLGRPKLENLAVHGLNRPEHLEWALSGDGAALLRWAEEEDLVVQVGFTSHGSFPLIKEALASGRFQFCSLHLHLLDPERIPLAREALASGMGVMAISPADKGGRLQDPSPTLVEDCSPLSPLQLAYRFLLAAKISTLSLGAAQPEDLTLAAQLANADGPLNQREQRALNQLRQQGERRLGENRCGQCKACLPCPKSVPIPDLLRLRNLAVGHNLQAFTEERYNLIGRAGHWWEGIDGSACERCGECLPRCPHHLPIPDLLADTHQRLAAAPRRRLWG | not soluble |
| MGSDKIHHHHHHMSDIKFNSMTHFEAVARLGGVAKAAQELQVTPSAVSQQLRLLEHQLGVRLFQREKRHLSLTIDGERLFQTTTQAFESIREVRNAIVRQRESFQLSLRVSPSFGEKWLAPRLAEFSKDYPSWNLRVDATPNFSDFETEVIDLDLRYGDGGWAGLYSDCVVNDLILPMCSPSYLAELRGLSVDPREQLGHARLIDSVKAYFRWDYWLPRNGIQGARMTYPYRFDRSSMSVQLAKDGAGVVLESTTIAFEDLVSGSLVPVSTEFDVIEFPGYWLVCPSRHMNRRAVRLFSDWVSRVGQRDTDRARQFLSESGLHISFERRPHFGTPDDRAATML | not soluble |
| MAHHHHHHMRVYYSNLVKDKRKCLNFIKVEKKYGGTSLLTKIGQAFNQEHLRNMKTKLDDVKKSSSPFFGTSMEGSNNIFKNFIDIFRKNNIIKDKLKINDSEKKEKEFYMFYVNSLMKYEGIFTYGKFQAFLKDLCDYFNIFSIKYKYKKKMNPQFEKLKKQYEVLNSFLPYELDNDDYKIFTQESKKYIAQAANVDIKFIDELLLFHDTLKTDRTWFYRRKVLKRNIPESFEAREMEAPYDRPVPKTYNYNIKEHSLEYDEFMKKHGRKLKFKQWNSKQHPWFRKNTSGRNRWATRPYTKQFPYLYYSRVPSHMYLSKNKPKISH | not soluble |
| MSLSLKLPKADRSIETYRLAASRTFPARLEGPLNRIAFSAVHTVADPFADNDPWLSVAVDWDKTIAFREHVWDLGLGVAEAMDTAQRGMGLDWPTSLELITRSVAAAKRRNALVFSGAGTDHLAVEDARTVDDVIRAYEEQISAVEKVGGRIILMASRALAKLGRNADDYAKVYDRVLSQVREPVIIHWLGDMFDPALTGYWGTKDLDKAMDVAVAVINANAAKVDGVKVSLLDKQREIDMRRRLDKRIRMYTGDDFNYAELIAGDSQGFSHALLGIFDAIAPAASYALSRLAAGDEAGFHDVLGPTVPLSRHIFKAPTRFYKTGVVFMAYLNGHQDHFTMVGGQESARSMLHLAELFRLADQAGLLANPELATRRMTTVLASHGIESEGHHHHHH | soluble |
| MGSDKIHHHHHHCLDVDIVDRVEKEDGFFKTEDHALAAINGVYSTLYAFAYHKTNWAIILPTYEDAMFSTGNAVPATVSNNTHSAGSAPVVNFWGELYNGIKNANEVIARVPSISFKSENDKNRIIAEAYFLRALYHYDLMRLYGGVNGIPIVIEPVTGIENAYVPQSPASKVYEQIISDFEYAAGLNDDDTPRLPKRLDPAYTSGRVTNGAAHAFLAEVYLTLGRWEDAAREAQEVISSEQYTFVNDYQNLWDIEQESLAQTEHIFSVPFFRDKDALADQSLGSNIAHLFNPAGVQVGGKLVSGNPYGKGAGAHRVQKWFIKYFQDDQGNLGYSDPSVDASIDESKLISKDYRIEVTFWRRFQQKNNNTGVLGNIVTVYPAAGGNSQENWGYIRKFIDPQGINNRTNENDMPRLRLSDMYLIRAEALNELGKYTEACQAIDMVRERARKANGTERAYPKYIGSDRPDNIGRTLTKQEFRWLVFMERGLEFAGEQKRWFDLIRMKYDENTQMYDYIKDTFIPSRPAADVQKQGVMAARKKYFPIPFAEVSRNDGVQQNPGY | not soluble |
| ATAAQAERTLPKKYGGRFTVTLIPGDGVGKEITDSVRTIFEAENIPIDWETINIKQTDHKEGVYEAVESLKRNKIGLKGLWHTPADQTGHGSLNVALRKQLDIYANVALFKSLKGVKTRIPDIDLIVIRENTEGEFSGLEHESVPGVVESLKVMTRPKTERIARFAFDFAKKYNRKSVTAVHKANIMKLGDGLFRNIITEIGQKEYPDIDVSSIIVDNASMQAVAKPHQFDVLVTPSMYGTILGNIGAALIGGPGLVAGANFGRDYAVFEPGSRHVGLDIKGQNVANPTAMILSSTLMLNHLGLNEYATRISKAVHETIAEGKHTTRDIGGSSSTTDFTNEIINKLSTMHHHHH | soluble |
